In PMC11470960 (Immunity, 2024):

How the values were obtained:
SEC = target: the molecule itself; assay: SEC
PLD3 (active) = target: T1, PLD3 (active) (Homo sapiens, UniProt Q8IV08 60-490); assay: cryo-EM
T1 sequence: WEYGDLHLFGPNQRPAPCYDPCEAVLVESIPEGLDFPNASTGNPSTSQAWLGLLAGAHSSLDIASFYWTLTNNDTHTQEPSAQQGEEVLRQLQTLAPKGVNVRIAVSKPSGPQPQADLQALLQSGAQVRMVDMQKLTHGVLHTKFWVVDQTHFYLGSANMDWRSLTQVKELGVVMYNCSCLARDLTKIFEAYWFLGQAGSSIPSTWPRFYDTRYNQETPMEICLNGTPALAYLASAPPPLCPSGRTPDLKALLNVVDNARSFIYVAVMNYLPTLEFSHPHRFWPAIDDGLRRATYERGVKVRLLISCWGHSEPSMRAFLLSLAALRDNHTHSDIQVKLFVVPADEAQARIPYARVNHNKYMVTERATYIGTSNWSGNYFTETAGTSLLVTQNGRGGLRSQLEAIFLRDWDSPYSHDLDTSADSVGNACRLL

PLD3(H201N,H416N) = target: T2, PLD3(H201N,H416N) (Homo sapiens, UniProt Q8IV08 60-490, H201N;H416N); assay: fluorescence anisotropy
T2 sequence: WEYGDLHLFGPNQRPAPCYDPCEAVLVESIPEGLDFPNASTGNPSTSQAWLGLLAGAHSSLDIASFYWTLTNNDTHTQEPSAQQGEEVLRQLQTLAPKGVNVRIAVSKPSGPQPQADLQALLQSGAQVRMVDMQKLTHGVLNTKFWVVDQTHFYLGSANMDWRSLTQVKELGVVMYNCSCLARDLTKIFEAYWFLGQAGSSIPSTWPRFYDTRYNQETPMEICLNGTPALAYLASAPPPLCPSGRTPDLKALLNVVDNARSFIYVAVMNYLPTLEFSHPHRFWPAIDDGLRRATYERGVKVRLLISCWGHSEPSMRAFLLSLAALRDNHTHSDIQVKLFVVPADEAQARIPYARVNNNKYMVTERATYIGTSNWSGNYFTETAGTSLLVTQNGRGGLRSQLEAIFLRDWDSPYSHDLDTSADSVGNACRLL

B1: PLD3(V232M), soluble catalytic domain (enzyme, human)
chain: WEYGDLHLFGPNQRPAPCYDPCEAVLVESIPEGLDFPNASTGNPSTSQAWLGLLAGAHSSLDIASFYWTLTNNDTHTQEPSAQQGEEVLRQLQTLAPKGVNVRIAVSKPSGPQPQADLQALLQSGAQVRMVDMQKLTHGVLHTKFWVVDQTHFYLGSANMDWRSLTQVKELGMVMYNCSCLARDLTKIFEAYWFLGQAGSSIPSTWPRFYDTRYNQETPMEICLNGTPALAYLASAPPPLCPSGRTPDLKALLNVVDNARSFIYVAVMNYLPTLEFSHPHRFWPAIDDGLRRATYERGVKVRLLISCWGHSEPSMRAFLLSLAALRDNHTHSDIQVKLFVVPADEAQARIPYARVNHNKYMVTERATYIGTSNWSGNYFTETAGTSLLVTQNGRGGLRSQLEAIFLRDWDSPYSHDLDTSADSVGNACRLL
- binding result (SEC): binds

Binder: UCUCUCUCUCUCUCUCUCUC (ssRNA, phosphorothioate backbone) [(rU*rC*)10 ssRNA]
- binding result (PLD3 (active)): binds

Binder: AGCUUAACCUG (ssRNA) [RNA9.2s 11 nt]
- binding result (PLD3(H201N,H416N)): no binding
